From US6512102B1, “Compositions and methods of diagnosis and treatment using casein kinase I” (Chiron Corporation, priority 1998, dated 2003) come the findings set out here.

Where two headings read alike, the source gives them in different places.

Data set [1] concerns Lef-1 dependent transcription. Description: Lef-1 enhancer luciferase reporter assay in Cos cells. In kind it is cell-based. On the procedure: Combinations of Wnt-1, CKIε, CKI kinase dead variant (lys→arg 38) and Lef-1 were transfected into Cos cells with a luciferase gene driven by multiple copies of Lef enhancer elements. As an internal control of transfection efficiency, the β-galactosidase gene driven by the SV40 promoter was co-transfected in all samples. 24 hours after transfection, cells were lysed and the lysate was tested for luciferase activity. The luciferase activity was normalized with respect to β-galactosidase activity. […] Dorsoanterior index (DAI) grade numbers were assigned to the phenotypes of the embryos. A grade 5 embryo is normal; a grade 3 embryo is cyclopic (one eye); a grade 1 embryo has a tail fin and somites but no head (acephalic); and a grade 0 embryo has no dorsoanterior structures (Kao et al., 1988).
The effect of CKI on Lef-1 dependent transcription in Cos mammalian cells was examined. A luciferase reporter gene driven by multiple copies of the Lef-I enhancer sequence was used. When only Wnt-I or lef-I or CKIε was transfected with the reporter construct, luciferase activity was induced only 2 to 3 fold (FIG. 1A). When Lef-1 was cotransfected with either Wnt-1 or CKIε, luciferase activity was induced 30 or 12 fold respectively.
Luciferase reporter plasmid contains multiple Lef-I enhancer sites upstream of the fos basal promoter. Various DNA plasmids encoding Wnt-1, CKIε , Dvl-1, GSK3 etc. were co-transfected with a luciferase reporter plasmid and a SV40 β-galactosidase plasmid into 24-well Cos cell culture. For each well, 0.5 μg total DNA was in a ratio of 0.08 μg:016 μg:0.02 μg for signaling molecules:luciferase: β-gal. SV40 β-gal construct was used as an internal transfection control, since β-gal activity is independent of the Wnt-1 signaling molecules. Transfection was done using LT1 (5 μl/μg DNA) (Panvera Co. # MIR23 10). Each sample was transfected in triplex repeats to obtain a statistical value. After 24 hours, cells were washed once with PBS and lysed in 50 μl/well lysis buffer supplied with the luciferase assay kit (Promega cat# EI500). 10 μl of each sample was aliquoted into two sets of tubes, one set for the luciferase assay and another for β-gal chemiluminescent reporter assay (Galacto-Light, TROPIX Inc. #BL100G). The result of the luciferase assay was divided by the corresponding β-gal activity, and then averaged.
In general terms: A reporter such as luciferase makes a cellular process visible.

The test system of a further data set is GSK3. As to the kind of experiment: In vitro kinase assay on GSK3. In kind it is biochemical. The text has this: B) Luciferase activity transduced by Dvl-1 was inhibited by CKI lys→arg 38. […] It was immunoprecipitated using anti-HA antibody and mixed with Immunoprecipitated GSK3.
For another data set, the system named is Arm (β-catenin). Description: Arm (β-catenin) protein level in stable Drosophila Schneider cells, Western blot. In kind it is cell-based. The source says: Drosophila Schneider cell lines were derived that stably express CKIε in the presence or absence of Drosophila Sgg (GSK3) protein. CKIε and sgg (GSK3) gene expression were controlled by a metallothionein promoter which is induced by copper. […] In the cells expressing CKIε and Sgg (GSK3), Arm (β-catenin) protein level is reduced.
CKIε was PCR-cloned into a vector pRmHa-3 containing a copper-inducible promoter (metallothionine). It was co-transfected with pMKK3 containing the neo-gene (G418-resistant gene) into Drosophila Schneider cells. G418 was used for selection of a stable cell line. In addition, stable cell lines containing combinations of CKIε+wt sgg, CKIε+Actsgg, CKIKD, CKIKD+DN Sgg were made. Actsgg is a mutant containing a mutation of Ser9 to Ala. To detect stabilized Arm, cells were plated 16 hours before the copper induction and lysed three hours after the copper induction. Western blots were performed with anti-Arm mAb 7A12.

The next data set relates to Wnt pathway. As to the kind of experiment: Wnt pathway activation by CKI isoforms (ectopic axis in Xenopus embryos and Lef-1 reporter gene assay). It is filed as cell-based. On the procedure: There are seven mammalian CKI isoforms (α, β, γ1−3, δ and ε). All these isoforms contain a conserved serine-threonine kinase domain and various amino terminal and carboxyl terminal domains. CKIε and CKIδ the most closely related isoforms have a longer carboxy terminus compared to the other isoforms. […] The activation of the Wnt pathway was analyzed by induction of ectopic axis in Xenopus embryos and the Lef-1 reporter gene assay.
Lef-1 reporter assays were carried out as done as described in Sakanaka et al. (1998) Proc Natl Acad Sci USA. 95:3020-3. For example, 293 cells were seeded at 2×10^5 cells/well in 12-well culture plates. Cells were transfected with 0.2 μg of the luciferase reporter gene, 0.02 μg of Lef-1, 0.03 μg of pTK-β-gal as an internal control, the indicated amount of CKIε, Axin or Wnt-1 cDNA, and pcDNA3.1 vector to a total amount of 0.4 μg of plasmids. Transfection was performed by Lipofectamine (Lifetechnologies Inc. #18324012). Luciferase and β-gal activities were measured 48 h after transfection. Relative light units (RLU) were measured with a luminometer (Analytical Luminescence Laboratory, Monolight 2010).

A further data set addresses T1, Axin (Homo sapiens, UniProt O15169).
T1 construct: expressed in transfected cells; host or cells: 293 cells
Description: Co-immunoprecipitation with Axin in 293 cells. The settings on record: both molecules co-expressed in 293 cells. It is filed as binding. On the procedure: Interaction of CKI with Axin When Axin was expressed in 293 cells, endogenous CKIε was found in the Axin immune-complex.
Cells were washed with PBS and lysed in buffer (20 mM Tris.HCl, pH 7.5/1 mM EDTA/0. 1% Triton X-100/[…]/1 mM phenylmethylsulfonyl fluoride/10 μg/ml each of aprotinin and leupeptin). For immunoprecipitation, cell lysates were incubated with various antibodies for 4 hours at 4° C., then added Dynabeads M-450 Sheep anti-Mouse IgG (Dynal Inc. #110.01). Enhance chemiluminescence reagents (Amersham Pharmacia Biotech) were used for detection of the immunoblots.

T1 sequence (O15169 whole entry, species assumed): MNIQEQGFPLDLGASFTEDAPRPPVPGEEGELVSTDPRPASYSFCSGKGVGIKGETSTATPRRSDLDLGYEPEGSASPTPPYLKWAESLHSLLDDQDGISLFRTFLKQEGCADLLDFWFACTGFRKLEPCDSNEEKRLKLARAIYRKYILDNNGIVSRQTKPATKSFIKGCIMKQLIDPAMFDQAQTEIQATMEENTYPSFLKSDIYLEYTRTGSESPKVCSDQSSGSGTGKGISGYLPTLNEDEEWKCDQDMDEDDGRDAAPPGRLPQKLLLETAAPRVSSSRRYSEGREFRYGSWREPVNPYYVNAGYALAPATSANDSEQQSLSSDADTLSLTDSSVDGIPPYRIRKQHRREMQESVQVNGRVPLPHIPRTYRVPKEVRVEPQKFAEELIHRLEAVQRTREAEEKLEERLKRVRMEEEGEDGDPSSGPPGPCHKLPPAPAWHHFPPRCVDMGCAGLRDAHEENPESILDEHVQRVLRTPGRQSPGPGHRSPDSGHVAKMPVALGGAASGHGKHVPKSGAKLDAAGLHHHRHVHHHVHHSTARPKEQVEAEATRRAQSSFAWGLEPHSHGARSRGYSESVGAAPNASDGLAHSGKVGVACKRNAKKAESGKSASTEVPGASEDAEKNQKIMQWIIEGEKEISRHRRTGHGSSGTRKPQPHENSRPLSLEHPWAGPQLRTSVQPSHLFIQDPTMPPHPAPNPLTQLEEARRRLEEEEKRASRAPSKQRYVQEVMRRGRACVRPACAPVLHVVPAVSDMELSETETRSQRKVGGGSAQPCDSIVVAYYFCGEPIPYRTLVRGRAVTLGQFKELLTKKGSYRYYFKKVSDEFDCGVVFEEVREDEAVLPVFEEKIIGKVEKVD

B1: CKIε: mouse casein kinase I ε, SEQ ID NO:1, 416 amino acids, 98.9% identical to human CKIε; expressed from transfected cDNA (protein)
chain: MELRVGNKYRLGRKIGSGSFGDIYLGANIASGEEVAIKLECVKTKHPQLHIESKFYKMMQGGVGIPSIKWCGAEGDYNVMVMELLGPSLEDLFNFCSRKFSLKTVLLLADQMISRIEYIHSKNFIHRDVKPDNFLMGLGKKGNLVYIIDFGLAKKYRDARTHQHIPYRENKNLTGTARYASINTHLGIEQSRRDDLESLGYVLMYFNLGSLPWQGLKAATKRQKYERISEKKMSTPIEVLCKGYPSEFSTYLNFCRSLRFDDKPDYSYLRQLFRNLFHRQGFSYDYVFDWNMLKFGAARNPEDVDRERREHEREERMGQLRGSATRALPPGPPTGATANRLRSAAEPVASTPASRIQQTGNTSPRAISRADRERKVSMRLHRGAPANVSSSDLTGRQEVSRLAASQTSVPFDHLGK
modifications: HA tag; Mus Casein Kinase I epsilon
notes: expressed from transfected cDNA
Turning to B1, the induction of transcription result in data set [1] (Wnt-I and CKI without lef-I) is recorded as “did not induce the transcription”. In addition, the luciferase activity induced in data set [1] (cotransfected with Lef-1, Cos cells) stood at 12 fold. The “phosphorylation of GSK3” value in the data set with GSK3 (in vitro) is on record as “phosphorylated purified GSK3 protein as well as immunoprecipitated GSK3 protein”. The “Arm (β-catenin) protein level” value with Arm (β-catenin) (cells expressing CKIε, copper induction) is “significantly higher than background”. The “activation of the Wnt pathway” value in the data set with Wnt pathway is on record as “activate the Wnt pathway”.

B2: CKIεΔ: truncated CKIε mutant where the C-terminus was deleted (protein)
chain: MELRVGNKYRLGRKIGSGSFGDIYLGANIASGEEVAIKLECVKTKHPQLHIESKFYKMMQGGVGIPSIKWCGAEGDYNVMVMELLGPSLEDLFNFCSRKFSLKTVLLLADQMISRIEYIHSKNFIHRDVKPDNFLMGLGKKGNLVYIIDFGLAKKYRDARTHQHIPYRENKNLTGTARYASINTHLGIEQSRRDDLESLGYVLMYFNLGSLPWQGLKAATKRQKYERISEKKMSTPIEVLCKGYPSEFSTYLNFCRSLRFDDKPDYSYLRQLFRNLFHRQGFSYDYVFDWNMLKFGAARNPED
modifications: left off: small tags and cut ends
notes: truncated CKIε mutant where the C-terminus was deleted
In the case of B2, the figures for the “kinase activity of C-terminally truncated mutant” value with GSK3 and with GSK3 (listed as C-terminally truncated CKIε) were “intact kinase activity” and “has kinase activity”, respectively. Further, in the data set with Axin, the Axin binding result was “bound less Axin”. The “activation of the Wnt pathway” value in the data set on Wnt pathway is recorded as “fails to activate the Wnt pathway”.

B3: CKIα: casein kinase I α isoform (protein, UniProt P48729 2-337, looked up)
Casein kinase I isoform alpha: ASSSGSKAEFIVGGKYKLVRKIGSGSFGDIYLAINITNGEEVAVKLESQKARHPQLLYESKLYKILQGGVGIPHIRWYGQEKDYNVLVMDLLGPSLEDLFNFCSRRFTMKTVLMLADQMISRIEYVHTKNFIHRDIKPDNFLMGIGRHCNKLFLIDFGLAKKYRDNRTRQHIPYREDKNLTGTARYASINAHLGIEQSRRDDMESLGYVLMYFNRTSLPWQGLKAATKKQKYEKISEKKMSTPVEVLCKGFPAEFAMYLNYCRGLRFEEAPDYMYLRQLFRILFRTLNHQYDYTFDWTMLKQKAAQQAASSSGQGQQAQTPTGKQTDKTKSNMKGF
B3: the “activation of the Wnt pathway” value in the data set on Wnt pathway is “not the case”.

B4: CKIδ: casein kinase I δ isoform (protein, UniProt P48730 1-415, looked up)
Casein kinase I isoform delta: MELRVGNRYRLGRKIGSGSFGDIYLGTDIAAGEEVAIKLECVKTKHPQLHIESKIYKMMQGGVGIPTIRWCGAEGDYNVMVMELLGPSLEDLFNFCSRKFSLKTVLLLADQMISRIEYIHSKNFIHRDVKPDNFLMGLGKKGNLVYIIDFGLAKKYRDARTHQHIPYRENKNLTGTARYASINTHLGIEQSRRDDLESLGYVLMYFNLGSLPWQGLKAATKRQKYERISEKKMSTPIEVLCKGYPSEFATYLNFCRSLRFDDKPDYSYLRQLFRNLFHRQGFSYDYVFDWNMLKFGASRAADDAERERRDREERLRHSRNPATRGLPSTASGRLRGTQEVAPPTPLTPTSHTANTSPRPVSGMERERKVSMRLHRGAPVNISSSDLTGRQDTSRMSTSQIPGRVASSGLQSVVHR
As to B4, in the data set on Wnt pathway, the “activation of the Wnt pathway” value was “activate the Wnt pathway”.

B5: Sgg: Drosophila Sgg (GSK3) protein, copper-inducible expression (protein, UniProt P18431 1-514, looked up)
Protein kinase shaggy: MSGRPRTSSFAEGNKQSPSLVLGGVKTCSRDGSKITTVVATPGQGTDRVQEVSYTDTKVIGNGSFGVVFQAKLCDTGELVAIKKVLQDRRFKNRELQIMRKLEHCNIVKLLYFFYSSGEKRDEVFLNLVLEYIPETVYKVARQYAKTKQTIPINFIRLYMYQLFRSLAYIHSLGICHRDIKPQNLLLDPETAVLKLCDFGSAKQLLHGEPNVSYICSRYYRAPELIFGAINYTTKIDVWSAGCVLAELLLGQPIFPGDSGVDQLVEVIKVLGTPTREQIREMNPNYTEFKFPQIKSHPWQKVFRIRTPTEAINLVSLLLEYTPSARITPLKACAHPFFDELRMEGNHTLPNGRDMPPLFNFTEHELSIQPSLVPQLLPKHLQNASGPGGNRPSAGGAASIAASGSTSVSSTGSGASVEGSAQPQSQGTAAAAGSGSGGATAGTGGASAGGPGSGNNSSSGGASGAPSAVAAGGANAAVAGGAGGGGGAGAATAAATATGAIGATNAGGANVTDS
As for B5, the “Arm (β-catenin) protein level” value with Arm (β-catenin) (cells expressing CKIε and Sgg (GSK3)) is “reduced”.
